Reference: publication PMC9896067, “Peptide Supramolecular Assembly‐Instructed In Situ Self‐Aggregation for Stratified Targeting Sonodynamic Therapy Enhancement of AIE Luminogens” (Advanced Science, 2022)
Where a SMILES comes first, the peptide text is derived from it. The star is where a group is joined. X1 = O=C(c1cc(OCCCCCC(=O)*)cc(C(=O)c2ccc3ccc4cccc5ccc2c3c45)c1)c1ccc2ccc3cccc4ccc1c2c34

Assays:
4T1 tumor‐bearing mice = assay: In vivo and ex vivo fluorescence imaging / biodistribution; details: DIR‐labelled, i.v. 2.4 µmol kg^−1, n = 3; for ex vivo distribution in tumor and major organs: 48 h postinjection
Experimental: For the fluorescence imaging and biodistribution assessment in vivo, DIR‐labelled nanosystem was prepared. Briefly, 2 µL of DIR stock solution (2 mM) was added to 1 mL of the PAHN. After stirring for 12 h, the DIR‐labelled nanosystem was finally obtained after dialyzing against deionized water using a dialysis bag (MWCO: 3500 Da) overnight to remove excess DIR. 4T1 tumor‐bearing mice (n = 3) were intravenously injected with DIR‐labelled (Ex/Em = 748 nm/780 nm) PAHN‐1 or PAHN‐2 at a dose of 2.4 µmol kg^−1. Fluorescence images were acquired at preinjection, and 0, 0.5, 1, 2, 6, 24 and 48 h postinjection by using a fluorescence imaging system (CRi Inc., USA). The tumor tissues and major organs were isolated and obtained for ex vivo imaging on the day of animal sacrifice. The corresponding fluorescence intensities were recorded.

4T1 cells = assay: CCK‐8 viability of 4T1 cells with or without US; assay type: cell-based, murine; details: for survival of 4T1 cells: without US irradiation, various concentrations
Experimental: To determine the antitumor efficacy in vitro, the 4T1 cells were divided into the following 6 groups: i) control, ii) control + US, iii) BP + US, iv) PAHN‐3 + US, v) PAHN‐2 + US, and vi) PAHN‐1 + US. Then, the medium were replaced with the fresh medium containing corresponding formulations at different concentrations (30, 60, 120 µM). After 4 h of treatment, the cells were rinsed with PBS and then treated by US at an intensity of 3 W cm^−2 for 4 min. After that, the culture medium was replaced by a fresh serum‐free medium for another 4 h incubation. Finally, a standard CCK‐8 assay was used to evaluate the viability of the cells. The therapeutic effect was also detected by cellular apoptosis assay. In brief, the 4T1 cells were divided into the 6 groups as described above. Next, cells were treated with either BP, PAHN‐3, PAHN‐2, PAHN‐1 at a concentration of 120 µM, or PBS, followed by US irradiation. Finally, these cells were costained by a dye solution of calcein AM (2 µM) and PI (2 µM) or collected for apoptosis analysis using flow cytometry.

inoblast L929 = assay: CCK‐8 cytotoxicity against L929; assay type: cell-based; details: without US
HUVECs = assay: CCK‐8 cytotoxicity against HUVECs; assay type: cell-based, human; details: without US
healthy mice = assay: Biosafety of PAHN in vivo (H&E, routine blood, blood biochemistry); details: i.v. 2.4 µmol kg^−1, 1, 3, 7, 14, 28 d postinjection, n = 5
Text: To investigate the short and long‐term biosafety of PAHN‐1 in vivo, PAHN‐1 at a dose of 2.4 µmol kg^−1 was intravenously injected into twenty five healthy mice that were sacrificed at predetermined time points (1, 3, 7, 14, and 28 d postinjection). Five healthy mice that were administrated with the saline solution served as the control group. The blood samples were then collected for biochemistry and routine blood examination. The main organs were stained with H&E.

CC(C)C[C@H](NC(=O)[C@H](CCCCN)NC(=O)[C@H](C)NC(=O)[C@H](CC(C)C)NC(=O)[C@H](CCCCN)NC(=O)[C@H](CC(C)C)NC(=O)[C@@H](NC(=O)[C@H](Cc1ccccc1)NC(=O)[C@H](Cc1ccccc1)NC(=O)[C@H](Cc1ccccc1)NC(=O)[C@H](CS)NC(=O)CCCCCOc1cc(C(=O)c2ccc3ccc4cccc5ccc2c3c45)cc(C(=O)c2ccc3ccc4cccc5ccc2c3c45)c1)C(C)C)C(=O)N[C@@H](C)C(=O)N[C@@H](CCCCN)C(=O)N[C@@H](CC(=O)O)C(=O)N[C@@H](CCC(=O)O)C(=O)N[C@H](C(=O)N[C@@H](CC(=O)O)C(=O)N[C@@H](C)C(=O)N[C@@H](CCCCN)C(=O)N[C@@H](CC(=O)O)C(=O)NCC(=O)N[C@@H](C)C(=O)N[C@@H](CCC(=O)O)C(=O)N[C@@H](CO)C(=O)N[C@@H](Cc1c[nH]cn1)C(=O)N[C@@H](Cc1c[nH]cn1)C(=O)O)C(C)C [PAHN-2] (X1-CFFFVLKLAKLAKDEVDAKDGAESHH-OH)
ex vivo distribution in tumor and major organs (4T1 tumor‐bearing mice): tended to accumulate in the liver and spleen
survival of 4T1 cells (4T1 cells; CCK‐8): no evident change

CC(C)C[C@H](NC(=O)[C@@H](NC(=O)[C@H](Cc1ccccc1)NC(=O)[C@H](Cc1ccccc1)NC(=O)[C@H](Cc1ccccc1)NC(=O)[C@H](CS)NC(=O)CCCCCOc1cc(C(=O)c2ccc3ccc4cccc5ccc2c3c45)cc(C(=O)c2ccc3ccc4cccc5ccc2c3c45)c1)C(C)C)C(=O)N[C@@H](CCCCN)C(=O)N[C@@H](CCCCN)C(=O)N[C@@H](CCCCN)C(=O)N[C@@H](CC(=O)O)C(=O)N[C@@H](CCC(=O)O)C(=O)N[C@H](C(=O)N[C@@H](CC(=O)O)C(=O)N[C@@H](C)C(=O)N[C@@H](CCCCN)C(=O)N[C@@H](CCCNC(=N)N)C(=O)NCC(=O)N[C@@H](C)C(=O)N[C@@H](CCCNC(=N)N)C(=O)N[C@@H](CO)C(=O)N[C@H](C(=O)N[C@@H](C)C(=O)O)[C@@H](C)O)C(C)C [PAHN-3] (X1-CFFFVLKKKDEVDAKRGARSTA-OH)
survival of 4T1 cells (4T1 cells; CCK‐8): no evident change

CC(C)C[C@H](NC(=O)[C@H](CCCCN)NC(=O)[C@H](C)NC(=O)[C@H](CC(C)C)NC(=O)[C@H](CCCCN)NC(=O)[C@H](CC(C)C)NC(=O)[C@@H](NC(=O)[C@H](Cc1ccccc1)NC(=O)[C@H](Cc1ccccc1)NC(=O)[C@H](Cc1ccccc1)NC(=O)[C@H](CS)NC(=O)CCCCCOc1cc(C(=O)c2ccc3ccc4cccc5ccc2c3c45)cc(C(=O)c2ccc3ccc4cccc5ccc2c3c45)c1)C(C)C)C(=O)N[C@@H](C)C(=O)N[C@@H](CCCCN)C(=O)N[C@@H](CC(=O)O)C(=O)N[C@@H](CCC(=O)O)C(=O)N[C@H](C(=O)N[C@@H](CC(=O)O)C(=O)N[C@@H](C)C(=O)N[C@@H](CCCCN)C(=O)N[C@@H](CCCNC(=N)N)C(=O)NCC(=O)N[C@@H](C)C(=O)N[C@@H](CCCNC(=N)N)C(=O)N[C@@H](CO)C(=O)N[C@H](C(=O)N[C@@H](C)C(=O)O)[C@@H](C)O)C(C)C [PAHN-1] (X1-CFFFVLKLAKLAKDEVDAKRGARSTA-OH)
cytotoxicity against L929 (inoblast L929): negligible cytotoxicity
cytotoxicity against HUVECs (HUVECs): negligible cytotoxicity
hematological indices (routine blood, blood biochemistry) (healthy mice; compared to control): negligible variations
histopathology of major organs (H&E) (healthy mice): neither significant histopathological changes nor abnormal inflammatory responses
ex vivo distribution in tumor and major organs (4T1 tumor‐bearing mice): relatively greater tumor accumulation
time of maximum fluorescence signal of the tumor region (4T1 tumor‐bearing mice): 24 h
cell viability (4T1 cells; 4T1 cells, + US 3 W cm^−2, 4 min after 4 h treatment, 30, 60, 120 µM tested, CCK‐8, n = 3): less than 20%
viability of cells (4T1 cells; 4T1 cells, without US, concentration of BP up to 120 µM, CCK‐8): higher than 80%
